Experimental data: US20240392003A1 (NUMAB THERAPEUTICS, published 2024)
Like-named read-outs stand apart in the source and are kept apart here. Blank lines part the entries; values can stand above or below the binder they belong to.

Experiments:
[1] = molecular target: T1, recombinant human ROR1 protein (Fc-Tag, Acro Biosystems RO1-H5250) (human, UniProt Q01973 30-406); experiment: SPR; hROR1-Fc immobilized
T1 construct: Bought; also called hROR1; recombinant human ROR1 ECD; not shown: Fc tag

[2] = molecular target: T2, human ROR1 expressed on cells (human, UniProt Q01973 30-937); experiment: flow cytometry, MDA-MB-231 cells; mean of two experiments
T2 construct: whole, on cells; One molecule for cell-surface ROR1 on all cell lines; the cell line is named under assay; also called hROR1; plasma membrane human ROR1

[3] = molecular target: T1, recombinant human ROR1 protein (Fc-Tag, …); experiment: SPR; hROR1-Fc immobilized; remark: listed apart in the source
[4] = molecular target: T2, human ROR1 expressed on cells; experiment: flow cytometry, MDA-MB-231 cells
[5] = molecular target: T2, human ROR1 expressed on cells; experiment: flow cytometry, MDA-MB-231 cells; remark: listed apart in the source
[6] = molecular target: T2, human ROR1 expressed on cells; experiment: flow cytometry, MDA-MB-231 cells; mean of three experiments
[7] = molecular target: T2, human ROR1 expressed on cells; experiment: flow cytometry, MDA-MB-231 cells, 1 mg/ml hSA
[8] = molecular target: T1, recombinant human ROR1 protein (Fc-Tag, …); experiment: SPR; hROR1-Fc immobilized; remark: listed apart in the source
[9] = molecular target: T2, human ROR1 expressed on cells; experiment: flow cytometry, gated on CLL patient tumor cells (ROR1 about 8k/cell), titration in the presence of human serum albumin, labelled framework-specific secondary reagent
[10] = molecular target: T3, recombinant human CD3 epsilon extra-cellular domain protein (His-Tag, SinoBiological) (human, UniProt P07766 23-126); experiment: SPR; hCD3ε immobilized, two-state fit (kd1)
T3 construct: extracellular domain; Bought; also called hCD3ε; human CD3ε; not shown: His tag

[11] = molecular target: T3, recombinant human CD3 epsilon …; experiment: SPR; hCD3ε immobilized, two-state fit;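 as to ka2: biacore T200 measurement with target covalently coupled to a CM5 chip, antibody constructs injected as analyte over a concentration series, constants derived in Biacore Evaluation software 3.2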;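 as to kd2: biacore T200 measurement with target covalently coupled to a CM5 chip, antibody constructs injected as analyte over a concentration series, constants derived in Biacore Evaluation software 3.2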
[12] = molecular target: T3, recombinant human CD3 epsilon …; experiment: SPR; hCD3ε immobilized, two-state fit (ka1)
[13] = molecular target: T4, recombinant Cynomolgus monkey CD3ε (His-Tag; SinoBiological) (Cynomolgus monkey, UniProt Q95LI5 22-117); experiment: SPR; cCD3ε immobilized, two-state fit (Kd1)
T4 construct: Bought; also called cCD3ε; not shown: His tag
T4 sequence (looked up): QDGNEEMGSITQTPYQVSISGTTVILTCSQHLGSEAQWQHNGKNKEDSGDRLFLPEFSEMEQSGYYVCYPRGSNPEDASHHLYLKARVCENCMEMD

[14] = molecular target: T3, recombinant human CD3 epsilon …; experiment: SPR; hCD3ε immobilized, two-state fit; remark: listed apart in the source;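 as to ka2: biacore T200 measurement with target covalently coupled to a CM5 chip, antibody constructs injected as analyte over a concentration series, constants derived in Biacore Evaluation software 3.2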;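 as to kd2: biacore T200 measurement with target covalently coupled to a CM5 chip, antibody constructs injected as analyte over a concentration series, constants derived in Biacore Evaluation software 3.2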
[15] = molecular target: T3, recombinant human CD3 epsilon …; experiment: SPR; hCD3ε immobilized, two-state fit (Ka1)
[16] = molecular target: T3, recombinant human CD3 epsilon …; experiment: SPR; hCD3ε immobilized, two-state fit (Kd1)
[17] = molecular target: T4, recombinant Cynomolgus monkey CD3ε …; experiment: SPR; cCD3ε immobilized, two-state fit
[18] = molecular target: T4, recombinant Cynomolgus monkey CD3ε …; experiment: SPR; cCD3ε immobilized, two-state fit (Ka1)
[19] = molecular target: T5, mouse serum albumin (Sigma-Aldrich A3559) (mouse, UniProt P07724 25-608); experiment: SPR; mSA immobilized, pH 7.4; biphasic binding corrected with bulk correction in 1:1 fit
T5 construct: also called mSA; MSA

[20] = molecular target: T5, mouse serum albumin (Sigma-Aldrich …); experiment: SPR; mSA immobilized, pH 7.4
[21] = molecular target: T6, cynomolgus monkey serum albumin (Molecular Innovations CYSA) (cynomolgus monkey); experiment: SPR; cSA immobilized, pH 7.4
T6 construct: also called cSA; CSA

[22] = molecular target: T7, human serum albumin (Sigma-Aldrich A3782) (human, UniProt P02768 25-609); experiment: SPR; hSA immobilized, pH 5.5
T7 construct: also called hSA; HSA

[23] = molecular target: T5, mouse serum albumin (Sigma-Aldrich …); experiment: SPR; mSA immobilized, pH 5.5; biphasic binding corrected with bulk correction in 1:1 fit
[24] = molecular target: T6, cynomolgus monkey serum albumin …; experiment: SPR; cSA immobilized, pH 5.5
[25] = molecular target: T7, human serum albumin (Sigma-Aldrich …); experiment: SPR; hSA immobilized, pH 7.4
[26] = molecular target: T5, mouse serum albumin (Sigma-Aldrich …); experiment: SPR; mSA immobilized, pH 5.5

B1: PRO2062 (scFv, V domains shown)
VH: QSQLVESGGGLVQPGGSLRLSCAVSGLSLSRNAMSWVRQAPGKGLEWIGIILTSGSTYYASWAKGRFTISKDNSKNTVYLQMNSLRAEDTAVYFCVRGIASSSLKSFWGQGTLVTVSS
VL: AQQLTQSPSSLSASVGDRVTITCQASQNVWNNNYLSWFQQKPGKPPKLLIVTASTLASGVSSRFSGSGSGTDFTLTISSLQPEDFATYYCAGGFSGEIRAFGTGTKVTVLG
notes: scFv (Full graft); also called 55-39-G02-sc02
Kd [1]: 0.103 nM
koff [1]: 0.000455 s⁻¹
kon [1]: 4.45e+06 M⁻¹ s⁻¹
EC50 [2]: 0.26 nM
Kd [3]: 0.0926 nM
koff [3]: 0.00049 s⁻¹
kon [3]: 5.29e+06 M⁻¹ s⁻¹

B3: PRO2060 (scFv, V domains shown)
VH: QSQVVESGGGLVQPGGSLRLSCAVSGFDLSSYAVSWVRQAPGKGLEWIGIIYPRANTYYASWAKGRFTISKDNSKNTVYLQMNSLRAEDTAVYFCARDRYDSGAYLYTTYFNLWGQGTLVTVSS
VL: DVQMTQSPSSLSASVGDRVTITCRASENIYSGLAWYQQKPGKPPKLLIYRASTLASGVSSRFSGSGSGTDFTLTISSLQPEDFATYYCQGGYYSSSSTYIAFGTGTKVTVLG
notes: scFv (Full graft); also called 55-38-D07-sc02
Kd [1]: 0.416 nM
koff [1]: 9.79e-05 s⁻¹
kon [1]: 250000 M⁻¹ s⁻¹
Kd [3]: 0.285 nM
koff [3]: 9.56e-05 s⁻¹
kon [3]: 335000 M⁻¹ s⁻¹
EC50 [6]: 2.93 nM

B5: PRO726 (scFv, V domains shown)
VH: EVQLVESGGGLVQPGGSLRLSCAASGFSLSSYDMSWVRQAPGKGLAWIGASYASGPTYYASWAKGRFTISRDNSKNTVYLQMNSLRAEDTATYFCARGGWTGTSHSNIWGQGTLVTVSS
VL: DIQMTQSPSSLSASVGDRVTITCQSSQSVFSNNYLAWFQQKPGQSPKRLIYSASTLASGVPSRFSGSGSGTDFTLTISSLQPEDFATYYCLGSYACSSADCYVFGTGTKVTVLG
notes: scFv; also called 28-21-D09-sc04; anti-CD3 scFv
koff [13]: 0.0062 s⁻¹
Kd [14]: 5.3 nM
kon [15]: 650000 M⁻¹ s⁻¹
koff [16]: 0.0055 s⁻¹
Kd [17]: 4.8 nM
kon [18]: 820000 M⁻¹ s⁻¹

Now from value to binder:

fold lower apparent binding affinity than PRO2062 [4]: ~2 fold
EC50 [5]: 0.63 nM
Rel. maximum binding (MFIscFv/MFIPRO2213) [5]: 0.87
Kd [3]: 0.364 nM
koff [3]: 0.000578 s⁻¹
kon [3]: 1.59e+06 M⁻¹ s⁻¹
B2: PRO2271 (scFv, V domains shown)
VH: QSQLVESGGGLVQPGGSLRLSCAVSGIDLSRNAMSWVRQAPGKGLEWIGIILTSGSTYYASWAKGRFTISKTSTTLDLQMNSLRAEDTAVYFCVRGIASSSLKSFWGQGTLVTVSS
VL: AQQLTQSPSSLSASVGDRVTITCQASQNVWNNNYLSWFQQKPGKPPKLLIVTASTLASGVSSRFSGSGSGTDFTLTISSLQPEDFATYYCAGGFSGEIRAFGTGTKVTVLG
notes: scFv, T cell score optimized variant of PRO2062; also called 55-39-G02-sc03

EC50 [7]: 0.74 nM
Rel. maximum binding (MFIscMATCH3/MFIPRO2213) [7]: 2.89
Kd [8]: 0.28 nM
koff [8]: 0.00056 s⁻¹
kon [8]: 2e+06 M⁻¹ s⁻¹
EC50 (read off the curve) [9]: ~1 nM
koff [10]: 0.0047 s⁻¹
Kd [11]: 1.8 nM
ka2 [11]: 0.0049 s⁻¹
kd2 [11]: 0.0023 s⁻¹
kon [12]: 2.5e+06 M⁻¹ s⁻¹
B4: PRO2668 (bispecific antibody)
chain: AFELTQSPSSLSASVGDRVTITCQASESINSRLAWYQQKPGQPPKLLIYDASDLTSGVPSRFSGSGSGTDFTLTISSLQPEDFATYYCQGYGGSSTTTFGCGTKLTVLGGGGGSEVQLVESGGGRVQPGGSLRLSCAASGFSLSSYDMSWVRQAPGKGLAWIGASYASGPTYYASWAKGRFTISRDNSKNTVYLQMNSLRAEDTATYFCARGGWTGTSHSNIWGQGTQVTVSSGGGGSGGGGSGGGGSGGGGSDIQMTQSPSSLSASVGDRVTITCQSSQSVFSNNYLAWFQQKPGQSPKRLIYSASTLASGVPSRFSGSGSGTDFTLTISSLQPEDFATYYCLGSYACSSADCYVFGTGTKVTVLGGGGGSEVQLVESGGGRVQPGGSLRLSCAASGFSLSSYAMNWVRQAPGKCLEWIGHINAGDIAYYATWAKGRFTISRDNSKNTVYLQMNSLRAEDTATYFCARGAGGFSTGPFKLWGQGTQVTVSSGGGGSGGGGSAQQLTQSPSSLSASVGDRVTITCQASQNVWNNNYLSWFQQKPGKPPKLLIVTASTLASGVSSRFSGSGSGTDFTLTISSLQPEDFATYYCAGGFSGEIRAFGCGTKVTVLGGGGGSGGGGSGGGGSGGGGSQSQLVESGGGRVQPGGSLRLSCAVSGLSLSRNAMSWVRQAPGKCLEWIGIILTSGSTYYASWAKGRFTISKDNSKNTVYLQMNSLRAEDTATYFCVRGIASSSLKSFWGQGTQVTVSS
notes: trispecific anti-ROR1 x hSA x CD3 scMATCH3, single chain, optimized variant of PRO2510; also called 19-04-A10-sc06(RTQ) scDb-o/28-21-D09-sc04 (RTQ) scDb-i/55-39-G02-sc05(RTQ)-scFv; RPO2668

Kd [19]: 9 nM
koff [20]: 0.00029 s⁻¹
kon [20]: 32000 M⁻¹ s⁻¹
Kd [21]: 1.6 nM
koff [21]: 0.00091 s⁻¹
kon [21]: 580000 M⁻¹ s⁻¹
Kd [22]: 3.3 nM
koff [22]: 0.003 s⁻¹
kon [22]: 900000 M⁻¹ s⁻¹
Kd [23]: 2.5 nM
Kd [24]: 2.3 nM
koff [24]: 0.0021 s⁻¹
kon [24]: 910000 M⁻¹ s⁻¹
Kd [25]: 2.2 nM
koff [25]: 0.0012 s⁻¹
kon [25]: 550000 M⁻¹ s⁻¹
koff [26]: 0.0002 s⁻¹
kon [26]: 78000 M⁻¹ s⁻¹
B6: PRO2155 (scFv, V domains shown)
VH: EVQLVESGGGLVQPGGSLRLSCAASGFSLSSYAMNWVRQAPGKGLEWIGHINAGDIAYYATWAKGRFTISRDNSKNTVYLQMNSLRAEDTAVYFCARGAGGFSTGPFKLWGQGTLVTVSS
VL: AFELTQSPSSLSASVGDRVTITCQASESINSRLAWYQQKPGQPPKLLIYDASDLTSGVPSRFSGSGSGTDFTLTISSLQPEDFATYYCQGYGGSSTTTFGGGTKLTVLG
notes: scFv; also called 19-04-A10-sc02; anti-hSA scFv
